According to the supplement of paper PMC12042874:
± gives the uncertainty stated by the source.

Test: amyloid nucleation score (Sup35N fusion, yeast selection) (log enrichment); library NNK3; higher = more nucleation; inactive = no reads after selection
How it was run: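 The nucleation score, computed with DiMSum, is the log enrichment of output over input reads, centred on the mode score of non-aggregating sequences. Sequences with under 100 input reads were dropped. Reads were generated by Illumina sequencing of plasmid inserts from psi-negative yeast with Sup35N fused to peptides of 20 random codons, induced with 100 μM copper sulfate for 24 hours and grown 7 days at 30°C on medium lacking adenine and uracil.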

Amyloid nucleation score, 0.771 ± 0.19:
KYSYFFVRKTMLDCSFTEAW

Amyloid nucleation score, 0.419 ± 0.26:
LDQPGPDNLNVVNKLNFDWH

Amyloid nucleation score, -0.426 ± 0.66:
LCATFMNYRVKIWSQLRY

Amyloid nucleation score, 0.863 ± 0.21:
KTIGILLNCIGWFVVGLPGS

Amyloid nucleation score, 1.78 ± 0.078:
LDFVYCNAVFWTLNGFLNCA

Amyloid nucleation score, 2.74 ± 0.076:
LCFNCMS

Amyloid nucleation score, -0.592 ± 0.76:
LFDLVYRWTWNED

Amyloid nucleation score, 0.751 ± 0.17:
KVMNLVRFRTDFLESNMRWC

Amyloid nucleation score, 0.595 ± 0.18:
LCYTPRGNKFTHLKW

Amyloid nucleation score, -0.779 ± 1.4:
LCLMDRGYVS

Amyloid nucleation score, 1.17 ± 0.16:
LFIWCTFFVIMFCSTTRVSI

Amyloid nucleation score, 1.07 ± 0.15:
KSLKTRYSPSVYFDFYLHYG

Amyloid nucleation score, -0.742 ± 1.1:
LFMYMMPQGPSVTANMELVI

Amyloid nucleation score, 1.64 ± 0.11:
KSHWTTM

Amyloid nucleation score, 0.296 ± 0.87:
LCVNCLPRSLIFDSSIWRVD

Amyloid nucleation score, 0.357 ± 0.4:
KSDEVTFMWHSHGIRMFR

Amyloid nucleation score, 1.23 ± 0.18:
KTACFLVNCLNYQRAERTLR

Amyloid nucleation score, 1.23 ± 0.12:
LDIDSFYCVLR

Amyloid nucleation score, 2.23 ± 0.065:
LFDVKDRSTMVVVIPCFHGS

Amyloid nucleation score, inactive:
KSAWLRLCIVR, KSCLCSSTKRKLNRLTYTDR, KSHPINIRPFKYIPKMLASS, KSSSFSFVASCGHAVILQKK, KSWVRGH, KTFCVVDTR, KTKVTALCNIKGNNGHFPKH, KVCRAYWYYPNFTMSRT, KVCVLVDMHSGHTVHWGLMC, KVFWHDVILTCG, KVIRESVKSLRHFKFAWLLS, KVSMPISHTQSLPVVTARCH, KVVFFTALTEPWFSPQFQGL, KVVIF, KWVFWSIYVPFTCKFNMVNR, KWWCHLWVIGVGFALGLYTG, KYICET, KYRFLSKSRMRGSACHGKDQ, KYVSECK, LAASVNYILRNIDCGVRMRF, LADLLLCDLRDCRRSAVGRM, LAFCIMNRQFLPLYLPTCSV, LAFKSDLSFNETVRKSSWLC, LANFHDITWWTWMTSHTGGS, LANTSRTGIFMDSNTDSRN, LAPFLFCRNNF, LARGDYVMKDMVLAHINDLC, LAVALIIRMSYLELGLLNPT, LAYVLKDYFNCYGVIVVISL, LAYYRPRQEWVPCNSVGLK, LCCGVCR, LCLSSCWYTRGH, LCMADYVRGTWVYVPYFWMC, LCMMMPRIIQFICHSYEHVD, LCPVGCFRCATGPFVKCDVY, LCSNLSGDVYELVSHFPGGD, LCTLYWNGARWSRCFATTFY, LCVLPMSSTRGPHNICSTLL, LDCHVS, LDEIWIKDFSMSSHVAGRHS, LDHAKRHIIVPEYLSLAKKQ, LDHIGKFLFRVTGCCITFTR, LDKCNHS, LDRCDHSIVCR, LDTYCIVDRDNRCGRNVVLY, LDVKQSSRSLREAVDVFNNH, LEERLNFGKYAVGDGYTLV, LEGLSKNQWGCLDATCSYTE, LEITALLTVRMHVDS, LEMGSGSHFSGDSWAHPLRG, LFATAEPMLRWVRSRLV, LFAYRWGIYFRLKVEYFVDS, LFCVLP, LFDILGMYEDMASVGFCIPQ, LFGDMIMVSSCWSKRNCSVA, LFKYLPCARRVQGRES, LFNGFVDTMESIVSFDNTSY, LFNTRERRYMEWPTAWRLRR

Amyloid nucleation score, -0.2 ± 0.54:
KTTTY

Amyloid nucleation score, 0.592 ± 0.29:
LCPRRMA
